Assay results reported in publication PMC3536657.

What was measured:
[1] = molecular target: HXB2 gp120 (HIV-1 clade B, isolate HXB2) (UniProt P04578)
[2] = molecular target: QH0692 gp120 (HIV-1 (clade B, isolate QH0692))
[3] = molecular target: b12 chimeric IgG, germline heavy chain paired with the mature light chain (human); assay: BLI; antibody-capture kinetics: IgG on biosensors, 2-fold serial dilutions of Env; mean of curves with R^2 >= 0.95
[4] = molecular target: b12 chimeric IgG, mature heavy chain paired with the germline light chain (human); assay: as above
Sequence of b12 chimeric IgG, mature heavy chain paired with the germline light chain (human) (heavy, as listed by the source, chain 1 of 2): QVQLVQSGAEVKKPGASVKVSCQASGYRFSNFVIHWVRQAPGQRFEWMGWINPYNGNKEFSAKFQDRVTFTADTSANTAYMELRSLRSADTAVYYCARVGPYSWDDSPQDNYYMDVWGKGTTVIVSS
Sequence of b12 chimeric IgG, mature heavy chain paired with the germline light chain (human) (light, as listed by the source, chain 2 of 2): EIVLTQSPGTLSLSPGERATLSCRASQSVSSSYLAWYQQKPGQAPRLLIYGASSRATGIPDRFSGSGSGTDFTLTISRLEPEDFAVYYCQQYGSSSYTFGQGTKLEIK

[5] = molecular target: mature IgG b12 (human); assay: as above
Sequence of mature IgG b12 (human) (light, as listed by the source, chain 2 of 2): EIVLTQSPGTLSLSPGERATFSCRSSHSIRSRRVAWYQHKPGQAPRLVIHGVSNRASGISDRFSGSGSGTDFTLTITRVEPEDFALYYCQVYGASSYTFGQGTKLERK

Sequence of b12 chimeric IgG, germline heavy chain paired with the mature light chain (human) (heavy, as listed by the source, chain 1 of 2): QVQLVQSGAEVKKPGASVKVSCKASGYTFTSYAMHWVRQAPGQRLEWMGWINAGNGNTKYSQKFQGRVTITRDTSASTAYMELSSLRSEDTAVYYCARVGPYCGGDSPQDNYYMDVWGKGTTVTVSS

Substance	neutralisation of HXB2 virions (luciferase reporter cells), IC50 [1] [µg/mL]	neutralisation of QH0692 virions (luciferase reporter cells), IC50 [2] [µg/mL]	Ka [3] [M⁻¹]	Ka [4] [M⁻¹]	Ka [5] [M⁻¹]	Kd [5] [nM]
mature IgG b12 (antibody)	0.002	0.22				
QH0692 gp120 (natural protein)			1.39e+07	7.56e+06	2e+09	2
